Assay results reported in US20230235040A1 (ALMIRALL S A, published 2023).
Changes are numbered by the printed parent chain.

T1: hu-IL-36β (human IL-36β, N-terminally truncated active form R5-E157) (human)
T1 chain: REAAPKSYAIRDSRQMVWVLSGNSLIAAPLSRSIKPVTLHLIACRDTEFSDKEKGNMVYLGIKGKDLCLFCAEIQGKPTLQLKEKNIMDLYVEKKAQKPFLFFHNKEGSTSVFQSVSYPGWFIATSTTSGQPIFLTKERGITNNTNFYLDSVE

T2: hu-IL-36γ (human IL-36γ, N-terminally truncated active form S18-D169) (human, UniProt Q9NZH8 18-169)
T2 construct: Purification tag cleaved off; Biotinylated where captured; also called hu-IL-36g
T2 sequence: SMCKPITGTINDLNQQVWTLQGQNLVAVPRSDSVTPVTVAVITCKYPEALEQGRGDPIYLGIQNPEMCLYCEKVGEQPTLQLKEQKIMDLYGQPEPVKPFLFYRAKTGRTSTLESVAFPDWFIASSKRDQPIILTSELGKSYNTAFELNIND

T3: hu-IL-36α (human IL-36α, N-terminally truncated active form K6-F158) (human, UniProt Q9UHA7 6-158)
T3 construct: Purification tag cleaved off; Biotinylated where captured (SPR, some ELISAs); also called hu-IL-36a
T3 sequence: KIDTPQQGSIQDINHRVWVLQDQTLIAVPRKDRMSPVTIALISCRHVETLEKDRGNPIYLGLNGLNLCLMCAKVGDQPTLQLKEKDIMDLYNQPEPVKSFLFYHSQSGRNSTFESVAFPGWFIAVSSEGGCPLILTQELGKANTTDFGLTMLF

T4: cy-IL-36γ (cynomolgus monkey IL-36γ, S18-K168) (cynomolgus monkey, UniProt Q9NZH8 18-167 (human entry))
T4 construct: Purification tag cleaved off
T4 chain: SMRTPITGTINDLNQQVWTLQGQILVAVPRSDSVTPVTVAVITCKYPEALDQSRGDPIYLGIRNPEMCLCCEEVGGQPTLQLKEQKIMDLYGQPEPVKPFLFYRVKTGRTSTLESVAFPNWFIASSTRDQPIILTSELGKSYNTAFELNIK

T5: cy-IL-36α (cynomolgus monkey IL-36α, K6-F158) (cynomolgus monkey, UniProt Q9UHA7 14-158 (human entry))
T5 construct: Purification tag cleaved off
T5 chain: T3 sequence with I2S, D3E, T4M, Q7P, G8V, T24I, M34V, A40S, V74A

B1: mAb7.0 recombinant human IgG1 (antibody, V domains shown)
VH: QVQLVESGGGVVQPGRSLRLSCAASGFTFSSYGMHWVRQAPGKGLEWVAVISYGGSERYYADSVKGRFTISRDNSKNTLYLQMNSLRAEDTAVYYCAREPWYSSRGWTGYGFDVWGQGTLVTVSS
VL: EIVLTQSPGTLSLSPGERATLSCRASQSVSSNYLAWYQQKPGQAPKLLIYSASSLQSGVPSRFSGSGSGTDFTLTISSLQPEDFATYYCQQTYSYPPTFGQGTKVEIK
B2: mAb5.0 Fab (yeast clone culture supernatant) (Fab, V domains shown)
VH: EVQLLESGGGLVQPGGSLRLSCAASGFTFSTYAMSWVRQAPGKGLEWVSGISGGSGYTYYADSVKGRFTISRDNSKNTLYLQMNSLRAEDTAVYYCARVVTYRDPPASFDYWGQGTLVTVSS
VL: QSVLTQPPSVSGAPGQRVTISCTGSSSNIGAHYDVHWYQQLPGTAPKLLIYGNDNRPSGVPDRFSGSKSGTSASLAITGLQAEDEADYYCQSYDYSLKAYVFGGGTKLTVL
notes: Human Fab secreted by the yeast clone, not purified
B3: mAb6_2 Fab (Fab, V domains shown)
VH: ELQLQESGPGLVKPSETLSLTCTVSGGSITSSNYYWGWIRQPPGKGLEWIGSIDYTGSTYYNPSLKSRVTISVDTSKNQFSLKLSSVTAADTAVYYCARGKYYETYLGFDVWGQGTLVTVSS
VL: B2 VL with Q1E, K98S, A99G
B4: mAb4.0 Fab (yeast clone culture supernatant) (Fab, V domains shown)
VH: QLQLQESGPGLVKPSETLSLTCTVSGGSIGSRSYYWGWIRQPPGKGLEWIGSIHYSGTTYYNPSLKSRVTISVDTSKNQFSLKLSSVTAADTAVYYCARVAPSYPRVFDYWGQGTLVTVSS
VL: B2 VL with H32G, D54R, K98R, A99V
notes: as for B2
B5: mAb3.0 Fab (yeast clone culture supernatant) (Fab, V domains shown)
VH: QLQLQESGPGLVKPSETLSLTCTVSGGSISSTSYYWGWIRQPPGKGLEWIGSIHYSGNTYYNPSLKSRVTISVDTSKNQFSLKLSSVTAADTAVYYCARVHYGGYIPRRFDHWGQGTLVTVSS
VL: B2 VL with H32G, D54T, K98R, A99G
notes: as for B2
B6: mAb6_2.1 Fab (Fab, V domains shown)
VH: B3 VH with S32T, S52N, P63A, R99T
VL: B2 VL with Q1E, K98S, A99G
notes: Purified Fab (Biacore, HaCat assay)
B7: mAb6_2.3 Fab (Fab, V domains shown)
VH: B3 VH with S31A, P63T, R99T
VL: B2 VL with Q1E, K98S, A99G
notes: as for B6
B8: mAb6_2.2 Fab (Fab, V domains shown)
VH: B3 VH with Y34A, Y60A, R99H
VL: B2 VL with Q1E, K98S, A99G
notes: as for B6
B9: mAb6_2.4 Fab (Fab, V domains shown)
VH: B3 VH with S31A, R99T
VL: B2 VL with Q1E, K98S, A99G
notes: Purified Fab
B10: mAb2.0 Fab (yeast clone culture supernatant) (Fab, V domains shown)
VH: B5 VH with S31T, T32S, H54Y, S56T, H101R, G104V, Y105G, I106V, R109Y, H112P
VL: B2 VL with K98S, A99G
notes: as for B2

Tests used:
[1] = molecular target: T1, hu-IL-36β (human IL-36β, N-terminally …); assay: cell-based or functional assay
[2] = molecular target: T2, hu-IL-36γ (human IL-36γ, N-terminally …); assay: ELISA, yeast Fab supernatant, anti-Fab-HRP
[3] = molecular target: T3, hu-IL-36α (human IL-36α, N-terminally …); assay: ELISA, yeast Fab supernatant, anti-Fab-HRP
[4] = molecular target: T4, cy-IL-36γ (cynomolgus monkey IL-36γ, …); assay: ELISA on coated cy- and hu-IL-36γ, yeast Fab supernatant; ratio of OD450
Procedure: (§1) Cell supernatants from yeast clones of interest were tested for binding to human IL-36 by ELISA as described above. To compare the binding of these supernatants to human and cynomolgus monkey IL-36, IL-36 proteins were coated at 2.5 μg/mL on 96-well Nunc MaxiSorp plates (Thermo Fisher) and the plates blocked with 5% goat serum in PBS. Yeast supernatants were diluted 1:1 with PBST containing 1% w/v BSA and added to the ELISA plates for 1-1.5 hours with agitation. Bound Fab was detected by incubating the plates with F(ab′)2-HRP (Jackson ImmunoResearch). The ELISAs were developed for 3-10 minutes by addition of 50 μL/well of tetramethylbenzidine (TMB) microwell peroxidase substrate (Scytek Laboratories, Inc., Logan, Utah, USA) and enzymatic color development was stopped by acidification with 50 µL/well of 2 N H₂SO₄ (Sigma-Aldrich Corporation, St. Louis, Mo., USA). The optical density of the samples at a wavelength of 450 nm (OD450) was analyzed with a SpectraMax i3X plate reader (Molecular Devices LLC, San Jose, Calif., USA). To estimate the relative affinity of each clone for cynomolgus monkey IL-36 and human IL-36 in this assay, a ratio of OD450 (OD450_cyIL-36/OD450_huIL-36) was calculated for each clone and IL-36 cytokine.

[5] = molecular target: T5, cy-IL-36α (cynomolgus monkey IL-36α, …); assay: ELISA on coated cy- and hu-IL-36α, yeast Fab supernatant; ratio of OD450
Procedure: as §1

[6] = molecular target: T2, hu-IL-36γ (human IL-36γ, N-terminally …); assay: cell-based or functional assay
[7] = molecular target: T3, hu-IL-36α (human IL-36α, N-terminally …); assay: cell-based or functional assay
[8] = molecular target: T1, hu-IL-36β (human IL-36β, N-terminally …); assay: SPR (Biacore), purified Fab, biotinylated hu-IL-36β captured
[9] = molecular target: T1, hu-IL-36β (human IL-36β, N-terminally …); assay: SPR (Biacore 8K), biotinylated hu-IL-36β captured on CAP chip, Fab injected, 37°C
Procedure: Briefly, a 1:4 dilution of Biotin CAPture Reagent (GE) into HBS-EP buffer (0.01 M HEPES pH 7.4, 0.15 M NaCl, 3 mM EDTA, 0.005% Surfactant P20) was applied to a CAP sensor chip at 2 uL/min flow rate. For kinetics measurements, 6 nM biotinylated human IL-36β was captured at 10 uL/min to achieve ˜50 response units in the second flow cell (FC2). FC1 was kept as a reference. […] The sensorgram was recorded and subject to reference and buffer subtraction before evaluating by BIACORE® 8K Evaluation Software (version 1.1.1.7442). Association rates (kₒₙ) and dissociation rates (koff) were calculated using a simple one-to-one Langmuir binding model.

[10] = molecular target: T1, hu-IL-36β (human IL-36β, N-terminally …); assay: phage competition ELISA: Fab on phage, soluble hu-IL-36β titrated against coated hu-IL-36β
Procedure: Selected phages with top binding signal were purified to perform phage competition ELISA. The optimal phage concentration was incubated with serially-diluted human IL-36β in ELISA buffer (0.5% BSA and 0.05% TWEEN©20 in PBS) in NUNC F plate for two hours. 80 μl of the mixture was transferred to human IL-36β coated wells for 15 min to capture unbound phage. The plate was washed with wash buffer (0.05% TWEEN©20 in PBS), and HRP-conjugated anti-M13 antibody (Sino biological, Cat #11973-MM05-H-50) was added in ELISA buffer for 30 min. The plate was incubated at room temperature for one hour with agitation, washed six times with wash buffer and developed for 15 minutes by addition of 100 μL/well of 1 Step Turbo™ B substrate (ThermoFisher, Cat #34022). The enzymatic reaction was stopped using 50 μL/well of 2N H₂SO₄. Plates were analyzed using a Perkin Elmer plate reader (Envision 2103 multilabel reader) at 450 nm. The absorbance at 450 nm was plotted as a function of antigen concentration in solution to determine phage IC₅₀. […] Real affinities for purified Fab molecules for the phage variants were also measured using Biacore (method described in detail in section E below).

[11] = molecular target: T1, hu-IL-36β (human IL-36β, N-terminally …); assay: cell-based or functional assay

Binder | ELISA OD450 [2] [OD450] | ELISA OD450 [3] [OD450] | ELISA OD450cyIL-36/OD450hu-IL-36 [4] [ratio] | ELISA OD450cyIL-36/OD450hu-IL-36 [5] [ratio] | % Inhibition, HEK-Blue IL-36R SEAP reporter assay [6] [%] | % Inhibition, HEK-Blue IL-36R SEAP reporter assay [7] [%] | IC50, IL-36-stimulated IL-8 secretion by HaCat cells [11] [nM] | Kd [8] [nM] | IC50 [10] [nM] | also measured
B1 | – | – | – | – | – | – | – | – | – | IC50, HEK-Blue IL-36R SEAP reporter assay [1]: 1.4 nM
B2 | 2.08 | 2.05 | 1 | 0.5 | 75 | 75 | – | – | – | –
B3 | – | – | – | – | – | – | 3.19 | – | – | apparent Kd (pooled screen) [8]: 40.1 nM; apparent Kd (pooled screen) [9]: 14.7 nM; apparent koff (pooled screen) [9]: 0.00128 s⁻¹; apparent kon (pooled screen) [9]: 87200 M⁻¹ s⁻¹; apparent IC50 (pooled screen) [10]: 8.57 nM
B4 | 2.3 | 2.16 | 1.2 | 0.5 | 57 | 91 | – | – | – | –
B5 | 2.11 | 1.63 | 1 | 0.5 | 64 | 40 | – | – | – | –
B6 | – | – | – | – | – | – | 1.64 | 3.5 | 0.77 | –
B7 | – | – | – | – | – | – | 1.31 | 1.62 | 0.49 | –
B8 | – | – | – | – | – | – | 2.22 | 2.55 | 1.04 | –
B9 | – | – | – | – | – | – | 0.13 | 1.05 | – | –
B10 | 2.5 | 2.53 | 1.2 | 0.7 | 89 | 91 | – | – | – | –
